Patent US20130309248A1
Changes are numbered by the printed parent chain.

B1: CR8001 (antibody, V domains shown)
VH: EVQLVESGGGLIQPGGSLRLSCAASGFTVSSNYVSWVRQAPGKGLEWLSLIYTGGTTYYADSVKGRFTISRDNSKNTVFLQMNSLRAEDAAMYYCARVSALRFLQWPNYAMDV
VL: QSALTQPASVSGSPGRSITISCSGTRSDVGGHNYVSWYQQHPGKAPKLMIYEVSHRPSGVSNRFSGSKSGSTASLTISGLQSEDEADYYCSSYTGEGPLGV
B2: CR8003 (antibody, V domains shown)
VH: EVQLVETGGDLVQPGGSLRLSCSASEFSFSSYWMSWVRQAPGKGLEWVANMKQDGSEKYYVDSVKGRFTISRDNAKNSLYLQMNSLRGEDTAVYYCARGSCDDSWTGCHDAFDI
VL: VLTQPPSVSVAPGQTARIACGGNNIGSKSVHWYQQKPGQAPVLVVYDDSARPSGIPERFSGSNSGNTATLTISRVEAGDEADYYCQVWESGSDLRLL
B3: CR8015 (antibody, V domains shown)
VH: B2 VH with E1Q, V5Q, T7S
VL: VLTQPPSVSVAPGQTAKITCGGDNIGRKSVHWYQQKPGLAPVLVVNDNSDRPSGIPARFSGSNSGNTATLTISRVEAGDEADYYCHVWGSSRDHYV
B4: CR8016 (antibody, V domains shown)
VH: B2 VH with T7S
VL: QSVVTQPPSVSGAPGQRVTISCTGSSSNIGAGYDVHWYQQLPGTAPKLLIYGNNNRPSGVPDRFSGSRSGPLALLAITGLQAEDEADYYCQSYDSSLSVYV
B5: CR8017 (antibody, V domains shown)
VH: B2 VH
VL: SSELTQDPAVSVALGQTVRITCQGDSLRSYYASWYQQKPGQAPVLVIYAKTNRPSGIPDRFSGSTSGNTASLTITGAQAEDEADYYCNSRDSSGNHVV
B6: CR8039 (antibody, V domains shown)
VH: QLQLQESGPGLVKPSETLSLTCTVSGGSIGSYYWSWIRQPPGKGLEWIGYIYYRGGTSYNPSLKSRVTISVDTSKSQFTLKLNSVTAADTAVYYCARKDWGSAAGSVWYFDL
VL: QSALTQPPSASGSPGQSVTISCTGTSSDVGGYNYVSWYQQHPGKAPKLMIREVSKRPSGVPDRFSGSKSGNTASLTVSGLQAEDEAEYYCSSYAGSNNLI
B7: CR8049 (antibody, V domains shown)
VH: QVTLKESGPVLVKPKETLTLTCTVSGFSLSNTRMGVSWIRQPPGKALEWLAHIFSNDETSYRTSLKRRLTISQDISKSQVVLSMTNVDPADTATYFCARIGSGYESSAYSTWLDP
VL: QVQLQQWGAGLLKPSETLSLTCAVYGGSFTDHYWSWIRQSPGKGLEWIGEVVHSGDTNYTPSLRNRVSISVDSSKNQFSLRLGSVTAADTAVYYCARGRNVAVVGAIQRHYDY
B8: CR8018 (antibody, V domains shown)
VH: B2 VH
VL: B1 VL with R16Q, S23T, R26S, H32Y
B9: CR8052 (antibody, V domains shown)
VH: DIQLTQSPSSLSASVGDRVTITCRASQGINTYLNWYQQKPGKAPKVLIFAASTLQSGVPSRFSGSGSGTEFTLNINNLQPEDFATYYCQQSYSTAIT
VL: EVQLVESGGGVVQPGRSLRLSCAASGFSFTTYGMHWVRQAPGKGLEWVAFIWYDGSNKHYQDSVKGRFTISKDNSNNMLYLQMDSLRVADTAVYYCVRDGGYSTWEWYFDL
B10: CR8050 (antibody, V domains shown)
VH: EIVMTQSPGTLSLSPGERATLSCRASQSVSRNYLAWYQQKPGLAPRLLISGASSRATGVPDRFSGRGSDTDFTLTISRLEPEDFAVYYCQHYGSVLVA
VL: QVQLQESGPGLVKPSETLSLTCTVSGGSVSSGTYYWSWIRQPPGKGLEWIGDISYSGSTNYNPSLKSRVTISRDTSKNLVSLKLTSVTAADTAVHYCARAMAAYNYDRGGYNDYYYMDV
B11: CR8041 (antibody, V domains shown)
VH: QVQLVQSGAEVKKPGASVKVSCQASGYTFTSFGLSWVRQAPGQGPEWMGWISAYNGEIKYAQKFQGRVSMTTDTSTRTAYMEVRSLRPDDTAVYYCAREPPLYFSSWSLDF
VL: EIVLTQSPGTLSLSPGERATLSCRASQSVSSNYLAWFQQKPGQAPRLLIYGASRRATGIPDRFSGSGSGTDFTLTISRLEPEDFAVYYCQQYDSSPRT

target: 3 H1N1 strains (1999-2007); test: cell-based or functional assay

Binder | SK50 titer
B1 | > 40 µg/mL

target: HA of virus A/Brisbane/59/2007 (H1N1) (influenza A virus (H1N1)); test: cell-based or functional assay

Binder | Neutralization titer SK50
B2 | > 40 µg/mL
B3 | > 40 µg/mL
B4 | > 40 µg/mL
B5 | > 40 µg/mL
B6 | > 40 µg/mL
B7 | > 40 µg/mL
B1 | > 40 µg/mL
B8 | > 40 µg/mL
B9 | > 40 µg/mL

target: HA of virus A/Chick/Germany/N/49 (H10) (influenza A virus (H10)); test: cell-based or functional assay

Binder | Neutralization titer SK50 | SK50 titer
B2 | > 40 µg/mL | 
B3 | > 40 µg/mL | 
B4 | > 40 µg/mL | 
B5 | > 40 µg/mL | 
B6 | > 40 µg/mL | 
B10 | > 40 µg/mL | 
B7 | > 40 µg/mL | 
B1 | > 40 µg/mL | > 40 µg/mL
B8 | > 40 µg/mL | 
B9 | > 40 µg/mL | 

target: HA of virus A/Hiroshima/52/2005 (H3N2) (influenza A virus (H3N2)); test: cell-based or functional assay

Binder | Neutralization titer SK50 | SK50 titer
B2 | 4.27 µg/mL | 
B3 | 28.3 µg/mL | 
B4 | 8.84 µg/mL | 
B5 | 13.6 µg/mL | 
B6 | 3.26 µg/mL | 
B7 | 3.54 µg/mL | 
B1 | 13 µg/mL | 13 µg/mL
B8 | 8.45 µg/mL | 
B9 | > 40 µg/mL | 

target: HA of virus A/Johannesburg/33/94 (H3N2) (influenza A virus (H3N2)); test: cell-based or functional assay

Binder | Neutralization titer SK50 | SK50 titer
B2 | > 40 µg/mL | 
B3 | > 40 µg/mL | 
B4 | > 40 µg/mL | 
B5 | > 40 µg/mL | 
B6 | 1.33 µg/mL | 
B10 | 1.49 µg/mL | 
B7 | > 40 µg/mL | 
B1 | 6.51 µg/mL | 6.5 µg/mL
B8 | > 40 µg/mL | 
B9 | > 40 µg/mL | 

target: HA of virus A/Mallard/Netherlands/12/2000 (H7N3) (influenza A virus (H7N3)); test: cell-based or functional assay

Binder | Neutralization titer SK50 | SK50 titer
B2 | > 40 µg/mL | 
B3 | > 40 µg/mL | 
B4 | > 40 µg/mL | 
B5 | > 40 µg/mL | 
B6 | > 40 µg/mL | 
B10 | > 40 µg/mL | 
B7 | > 40 µg/mL | 
B1 | > 40 µg/mL | > 40 µg/mL
B8 | > 40 µg/mL | 
B9 | > 40 µg/mL | 

target: HA of virus A/New Caledonia/20/1999 (H1N1) (influenza A virus (H1N1)); test: cell-based or functional assay

Binder | Neutralization titer SK50
B2 | > 40 µg/mL
B3 | > 40 µg/mL
B4 | > 40 µg/mL
B5 | > 40 µg/mL
B6 | > 40 µg/mL
B7 | > 40 µg/mL
B1 | > 40 µg/mL
B8 | > 40 µg/mL
B9 | > 40 µg/mL

target: HA of virus A/Panama/2000/1999 (H3N2) (influenza A virus (H3N2)); test: cell-based or functional assay

Binder | Neutralization titer SK50 | SK50 titer
B2 | > 40 µg/mL | 
B3 | > 40 µg/mL | 
B4 | 28.3 µg/mL | 
B5 | > 40 µg/mL | 
B6 | 4.6 µg/mL | 
B10 | 6.5 µg/mL | 
B7 | > 40 µg/mL | 
B1 | > 40 µg/mL | > 40 µg/mL
B8 | > 40 µg/mL | 
B9 | 21.9 µg/mL | 

target: HA of virus A/Solomon Islands/IVR-145 (H1N1) (influenza A virus (H1N1)); test: cell-based or functional assay

Binder | Neutralization titer SK50
B2 | > 40 µg/mL
B3 | > 40 µg/mL
B4 | > 40 µg/mL
B5 | > 40 µg/mL
B6 | > 40 µg/mL
B7 | > 40 µg/mL
B1 | > 40 µg/mL
B8 | > 40 µg/mL
B9 | > 40 µg/mL

target: HA of virus A/Wisconsin/67/2005 (H3N2) (influenza A virus (H3N2)); test: cell-based or functional assay

Binder | Neutralization titer SK50 | SK50 titer
B2 | 5.31 µg/mL | 
B3 | 23.8 µg/mL | 
B4 | 1.77 µg/mL | 
B5 | 2.82 µg/mL | 
B6 | 1.8 µg/mL | 
B10 | 1.77 µg/mL | 
B7 | 3.26 µg/mL | 
B1 | 11.9 µg/mL | 11.9 µg/mL
B8 | 6.03 µg/mL | 
B9 | > 40 µg/mL | 

target: 3 H1N1 strains (1999-2007); test: cell-based or functional assay; remark: another data set of the same source

Binder | SK50 titer
B11 | > 40 µg/mL

target: full-length recombinant H1 HA (A/New Caledonia/20/1999) on PER.C6 cells (influenza A virus (H1N1)); test: FACS, IgG 5 µg/ml, HA-expressing PER.C6 cells; untransfected MFI 3

Binder | MFI
B2 | 3 MFI
B3 | 4 MFI
B4 | 3 MFI
B5 | 3 MFI
B7 | 3 MFI
B8 | 3 MFI

target: full-length recombinant H3 HA (A/Wisconsin/67/2005) on PER.C6 cells (influenza A virus (H3N2)); test: as above

Binder | MFI
B2 | 657 MFI
B3 | 600 MFI
B4 | 840 MFI
B5 | 558 MFI
B7 | 542 MFI
B8 | 348 MFI

target: full-length recombinant H7 HA (A/Netherlands/219/2003) on PER.C6 cells (influenza A virus (H7N7)); test: as above

Binder | MFI
B2 | 5 MFI
B3 | 4 MFI
B4 | 5 MFI
B5 | 4 MFI
B7 | 4 MFI
B8 | 4 MFI

target: full-length recombinant H1 HA (A/New Caledonia/20/1999) on PER.C6 cells (influenza A virus (H1N1)); test: FACS, IgG 5 µg/ml, HA-expressing PER.C6 cells; untransfected MFI 4

Binder | MFI
B11 | 4 MFI
B6 | 4 MFI
B1 | 100 MFI
B9 | 4 MFI

target: full-length recombinant H3 HA (A/Wisconsin/67/2005) on PER.C6 cells (influenza A virus (H3N2)); test: as above

Binder | MFI
B11 | 364 MFI
B6 | 503 MFI
B1 | 763 MFI
B9 | 364 MFI

target: full-length recombinant H7 HA (A/Netherlands/219/2003) on PER.C6 cells (influenza A virus (H7N7)); test: as above

Binder | MFI
B11 | 120 MFI
B6 | 4 MFI
B1 | 106 MFI
B9 | 5 MFI

target: full-length recombinant H1 HA (A/New Caledonia/20/1999) on PER.C6 cells (influenza A virus (H1N1)); test: FACS, IgG 5 µg/ml, HA-expressing PER.C6 cells; untransfected MFI 6

Binder | MFI
B10 | 8 MFI

target: full-length recombinant H3 HA (A/Wisconsin/67/2005) on PER.C6 cells (influenza A virus (H3N2)); test: as above

Binder | MFI
B10 | 282 MFI

target: full-length recombinant H7 HA (A/Netherlands/219/2003) on PER.C6 cells (influenza A virus (H7N7)); test: as above

Binder | MFI
B10 | 6 MFI
